Assay results published in US12077763B2, “RNA-based control of powdery mildew” (Greenlight Biosciences, Inc., priority 2021, dated 2024).

B1: GS1868: dsRNA trigger SEQ ID NO 177; gene target Glycine-rich RNA-binding protein 4, mitochondrial (nucleic acid)
chain: TGCCCCATGAGAGACCGCCAATAAAGAGTTTAGGCATTCTGTATGTTAATTTTTATCCTCGCGAACCTGGTATAAAGTCTTAATCTCCGCGTGCATCCTTGAATAAAATGTGACAACGCCATCGAGTTTGAGAGGGAGAGAGAAAGTGGATACGGAACAGTTAAAGAAAAGTACATCGGGATATAACAAAACCTCCGTGTAGCATACAAATGAGGGGACGATGAATATATTTGTTTGCTTGGTGAACAGGCCGGGGAGGATTGGGATGAAGTAATGTTAGTACACACTGTCAGAGAACTAACGAACTTCTAGTGAGTTGCTCAAGAAGAGCAAAGTGCTGCGTTTATAGGGAGACCTGATGAACTTTATTAATTCGGTTTGGAGGAGCAATTTTTATAATGGACTGGAGTAACCGATCAGTCAATTTCGTGATAGAACTATTCTTCCGCAAATTGAGACGCAAAAGCTCTCTGATTGTGATGACAAGAGTTTTGCGGGTCTCAATAAAGGAATTGATGTTT
B2: GS1862: dsRNA trigger SEQ ID NO 149; gene target ATP-dependent RNA helicase dbp10 (nucleic acid)
chain: CTGCCTGGAATTTGACAACGCATGTAGGATTTCATTAAGTTGAGTGCTAAATCCCATTTCGAAAAGTCGATCTGCTTCATCAAATACCACATACTTGACCGAGGAAAGGTCTAATGACATTTCAATCTTAAGGTGTAAGAAGCGACCTGGCGTTGCAATAATAATATCAGGGTTGGCTGCCATAAATCTGAATTGATCTTCAAGACTATCTCCCCCTACAAGAAGAACGCATTTGAGATCAGTGCTCCGAGAAAATTCCTTAACGACTTTCAAAGTCTGCAAGGCAAGCTCTCGAGATGGGGATAGAATCAGAGCTCTAGCACCAACTCGAGCACTATGCGCCTTCAACATTTGAATCATCGGAATAACAAAAGCCGCTGTCTTTCCTGAACCGGTTCTAGCCATTCCCACGACATCTTGATGATCAAGAATCAGAGGTATTGTTTTTCTCTGGATTGGAGTCGGAACATTGAAGCCTTTTCTTTTGATGGCTCTCAAAAGATGAGCATCCAAACCCATAGATTGAAAA
B3: GS1869: dsRNA trigger SEQ ID NO 166; gene target General alpha-glucoside permease (nucleic acid)
chain: CGGCCCCATCGAACCATACTTTTTGCAAAAAGATGGCATCGCATAGAATTGAGCAAGCAAGAGATTATCGTAACCTTCCATAATAATACCAGTTGAGATAGCAACACTATAAACAGCAGCTGGCCACCACAATTTTAGAGCTTCGTTGACAGTCATATTCTTTTCAAGCTCTTCCGCACGATGGGCACCCTGAGTGGTATAGTACTGACTCTTTTCCAAAGAAGGAGCTCGGCCAATGTCCTCCTCATGCTTGGCAGTAGTTTCAAGAATGGACTTGTCGATAATAGACATTTTGAGAGTTGAGAAGTCAAAAAAATTTTGAAGTAAAGATCAGACTAAAGGTGAGTTTGGGGATTTAAAAAAAGAATATTAGGGTAAGGTTATGATTGAGTTCACAAGGGAATAGGTTTTCTAGAAAGAGCATGAAGGAAAGACATAAAACCTGAGAGTGATATTTGGATAATTTTGAATTCCATCGTCAACAGCTTCGGGAGACAAGTCTTTATAGAATTCTGAT
B4: GS1866: dsRNA trigger SEQ ID NO 163; gene target Proline-rich protein LAS17 (nucleic acid)
chain: ATATCGGGAGGGGTGGCGGTAATGAGGAAGGCTCTTGAGCTGCTATGAGAGATGGTGATGATTGTGCCTGATGTACTGGAAGTAATGGTAGTGATGATGTTTGAGTAACACGAAGAGATGTTGGCGATGGAGCTGGAGAAACTGAGGGATTTTTTGGTATTTGAGAGACTGTGAAAGATTGAGGTTGTGGACTATTTGGCTCTCTATTCTTTTCACAGTCTCGAGTAGTTATTTGAACACTAGGACGTAACGAGGAAGGAGGCAAAGGAGGTGTTGCTGATGCAGATACTATCGGAATTTTTGGAGGTAATTGGGGAGGAGGGAGATGCTCACTTTTAGCAAGAGGGGTTGTGACTTGGGAAGAACTTGTATGAAAAACACGAGTTAAAGGTGGTATTGTTTCACGTGGTGGTATTAAAGGCCCCGCACGATGTGAAATAAAAGATCCAGTGTTTTTCTCACCTGAAAAAGGTGGTGGTACGTTGAATTTAGAGACGCCCGATTCCGAATTTTCTTTAGAATTTTT
B5: GS1867: dsRNA trigger SEQ ID NO 126; gene target hypothetical_protein_BGT96224_Ac30495 (nucleic acid)
chain: AAACCGAAATCTACGACAGGTAAAGCATCACGCAATATAACGGCGAAAGCCCACCTGCTATCACCTACTCTCAACGTCCTACGAAAAGATGTTGTTTTCGAGAAAGCGCTCAGTGACATGCATGGCTCTTCCGATAAATACCTAGATAAAGACTCTAGCATGGAAATTAATATAGGTGATGATATCAGCGAGGGGTCGAATGCGGATCCCTTTGCAGAAGAACTCCCCACGCCATCAATAGCGCCAGATACTGCGGTAGCTACCACACTTAACTTAGCACATGGACAGGACGTGAAAGATAATCACAATGCGGCTAGTCTCATGGATGCAATCAAAGGCCTACTAGACTTGACAAATGATTACTTAAAAAATCTTGAAGCACATCACCCAGGAGTTGGGGCAGACTTCTTAGCGCTTCTAGCGGACGGAGCCTCCCGAGCTATGCGCGGAGAGCGAGTTTATTCTAATACATCAAAAGTATGCGAAGGTAGAAAACAAGGAACACAGGCAACATGGACTGA
B6: GS1865: dsRNA trigger SEQ ID NO 183; gene target Protein transport protein SEC31 (nucleic acid)
chain: TTGAGCTTCTGGGTGTTTTGTAAGAGAGTTTGTGTTAAATAGTGTCTGTATAGAAATTTTGCCATCAAAAGACGCAGTTGCAGAAAGTGCTGGATTATGAGGATGAAATCGAGTCTGAAAGGTCCAGTTTGTAGCTTCAGGAAATTCTCCCAGGAGTTCTCCAAGCTGTGGGTTCCATAAGATAGTTCTATTATCTTTGCCACATGATAACAGCAAATTGCTGTCTTGTTGACACCATGAGATTGATAAAATTCCCTGATTATGGCCTTGTAATGTACATTCTGGTGCATTGGAATTTCGTAAATCCCAAAGAAGAATAACTGGTTTTGTATCATCAGGTGTTGCTGTTAGTAGCTTCGTTGAATTTTCTGGATCCCAAGCAATAGCTCCAACAGCTTTACGATTGTTATTCAAAGTCAATGACGCTTTTTTGGTTTTTAAGTCCCACACTGTAACAAATCCTCCAGTTCCACCAGTAGCCAAAATATGAGGAACTTTCCTATTCCAGGCAACACATTCAAGGTCAT
B7: GS1863: dsRNA trigger SEQ ID NO 167; gene target Chromatin remodeling factor mit1 (nucleic acid)
chain: TTGAGCCAAAATAAGAAACGACACGTAGCTTTGGAGCCCATTTTTTAATTTCTCGACGCCAATTAAGGCAAGTCGAATTAGGAGCTACAACTAAAAAGGGCCAACATTTCGAGTGATTTTTGACAATTGCTACGATAAAGGCAATAATTTGTATTGTCTTTCCTAAGCCCATCTCATCTGCTAGAATAACATTTTTCTTTTGATGGAAGTTATAAAGTAGCCAATTTAGACCTTCCATTTGATATTGCATCATCTTTCCTCCTGTGAGTTGTAGAGGTTGCTCTTTCATCTCAACTCTTCTTGAAAAATTTAATTTTCGGAACATCTGTAAGCGATGGTCCATAGCTGAAGTTGAGGATTGCCTAAAGTATTTTCCATCAATAAATTCATTATAGGCGGTAATAAAGCTTTGATATCTTTCGATATTCTCAATTTTTGGGGGCTCCATCCATACTGCTTCATCATAAGCAAGACCTTTGAATTTTACAAAGACTTCAGTGATCATATTAGCAGCAGCCTTGTCTATCTT
B8: GS1864: dsRNA trigger SEQ ID NO 197; gene target NEDD8-conjugating enzyme UBC12 (nucleic acid)
chain: TTCCAAAAAAAAAACTCATCAGGTTTTTAGAACACAATCAAACGTTTGGCCCTTAATAGTACCGCCAGCCATACTATTTCTAACATTTCTCTTGAATATCTCACGATGATTCCGAAGATCTTCGGCGGCTTCTTTATTCAACGGATCCGAAGAATTTGGCTCTAAAAAGAGAAAAATAATTAAAGAATTCCAGTAGCGAACTAGACCAGAGTAGAGCAGGAAGGAGTATTCGATGATACCTAAAAAAAGACACACACGTTATAAAATGGCTCTAAGAATGGTATTGAGGCTAATGTATATTTTTTTCTTTGAAAAAACAAAAAACAAACAAACAAAAAAATTATGGATAATAAGTAATCCTACCACTACACTCTGTAGATTTAGGACCGGTTTCCAGTCCTCACGCAAGATATTGAGACACACGTTTCCATCAAGATCGATATTTGGATGATAAATCTTTTCTATACATTTTACTTTTGGCGCTTCATGAGGGAAGTTTTGAGAGATAGAAAAAGTGAATTGAAAAC
B9: GS1870: dsRNA trigger SEQ ID NO 170; gene target Myosin-24 (nucleic acid)
chain: ATTTCTCATTCGCGTAGTTGATACAGAATTGCTCGAATGAGTTTTTTGCAAAGTGTTCGAATCCATAAATATCTAAAACTCCTATAAATGACTTGACACGGCTTAAGACTTCTTCAGCAGCCAACGCATAATTGATATTTTCAACAAGCCAGTCAAAAAGACTTGAATAAACAAATTTAGCGACCGAATCTCGAACAACAATGGCTTGCTGTTGGCTTAAGCTACTAACGACTTTATCTCCCCGGGTAATTAATTGCTTCTTGACTGTCCATCTAGCAAATTCCACCGGATCAATGCCCAAAATTGAAGCAGCAATCTCTAGAGAAGGCTCATTAGGAGTAAGTGAAGATTCATTTCTTGTGGCAGTAATCTTAACATTTCCAAGATGTAGTAATGCTGCAAGTATTTTAAATATTTCGGTCTGCTGATCCTGTTTGACTCCAATTGTTGCTAGGGACTTTTTGAGTGCTTCGAATTCGGCTTTATCATCAACTCCATCTATTGAAGGTGA

Test system: E. necator
Assay: Leaf disc assay, dry inoculum (settling tower), decrease in disease severity / hyphal growth (Example 2)
Settings: decrease in disease severity (hyphal growth) relative to untreated control, value ± SE; for % decrease =/− SE TP1: time point 1 (untreated control hyphal growth ≥50%); for % decrease =/− SE TP2: time point 2

Molecule	% decrease =/− SE TP1 [%]	% decrease =/− SE TP2 [%]
B1	1 ± 6	–
B2	26 ± 4	29 ± 5
B3	21 ± 7	17 ± 7
B4	8 ± 5	13 ± 7
B5	7 ± 4	–
B6	5 ± 6	3 ± 10
B7	6 ± 5	–
B8	5 ± 6	3 ± 9
B9	11 ± 5	13 ± 8
